The source of these data is patent US20020173621A1, “Method for producing dimerized polypeptide fusions” (ZymoGenetics, Inc., published 2002).

Experiment [1] addresses tetrameric PDGF β-receptor analog (purified from pSDL114+pSDL113 co-transfected cells) (human). Nature of the experiment: saturation binding, analog plated at 24.3 ng/ml on goat anti-human IgG coated wells.
Experiment [2] has the same target. Kind of experiment: saturation binding, analog plated at 12.1 ng/ml on goat anti-human IgG coated wells.
The target in experiment [3] is T1, tetrameric PDGF β-receptor analog (purified from pSDL114+pSDL113 co-transfected cells) (human).
T1 heavy: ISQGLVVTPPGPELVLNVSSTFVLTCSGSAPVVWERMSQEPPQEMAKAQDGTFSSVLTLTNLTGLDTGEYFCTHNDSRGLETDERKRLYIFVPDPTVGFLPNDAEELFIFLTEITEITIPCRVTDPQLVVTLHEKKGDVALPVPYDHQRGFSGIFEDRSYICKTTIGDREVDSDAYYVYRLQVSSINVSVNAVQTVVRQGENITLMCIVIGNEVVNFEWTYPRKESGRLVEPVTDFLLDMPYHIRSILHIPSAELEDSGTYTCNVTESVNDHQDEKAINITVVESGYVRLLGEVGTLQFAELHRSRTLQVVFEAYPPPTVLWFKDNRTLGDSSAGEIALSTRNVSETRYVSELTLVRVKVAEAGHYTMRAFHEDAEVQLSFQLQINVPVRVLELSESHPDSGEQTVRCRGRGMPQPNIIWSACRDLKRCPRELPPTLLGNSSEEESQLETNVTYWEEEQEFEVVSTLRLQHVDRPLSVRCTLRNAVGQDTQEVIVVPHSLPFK
T1 light: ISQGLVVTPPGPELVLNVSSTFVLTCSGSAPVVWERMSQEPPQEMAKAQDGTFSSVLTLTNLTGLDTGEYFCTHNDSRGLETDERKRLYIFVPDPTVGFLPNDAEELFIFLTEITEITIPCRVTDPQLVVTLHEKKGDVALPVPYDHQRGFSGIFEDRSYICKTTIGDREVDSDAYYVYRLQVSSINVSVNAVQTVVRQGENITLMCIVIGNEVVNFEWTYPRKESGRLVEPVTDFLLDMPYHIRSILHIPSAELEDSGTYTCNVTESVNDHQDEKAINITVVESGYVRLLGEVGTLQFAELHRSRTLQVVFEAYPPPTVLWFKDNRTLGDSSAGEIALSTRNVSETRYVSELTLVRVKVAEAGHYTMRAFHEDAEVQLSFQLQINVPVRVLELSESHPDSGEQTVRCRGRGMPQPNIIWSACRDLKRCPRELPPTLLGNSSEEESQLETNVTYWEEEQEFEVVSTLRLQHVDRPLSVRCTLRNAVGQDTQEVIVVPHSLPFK
Kind of experiment: solid phase radioreceptor competition binding assay, analog plated at 48.6 ng/ml, unlabeled PDGF-BB against 125I-labeled PDGF-BBTyr. Here is the method: In a solid phase radioreceptor competition binding assay (RRA), the wells of 96-well microtiter plates were coated with 100 μl of 2 μg/ml affinity purified goat anti-human IgG (Cappel Labs) diluted in 0.1 M Na₂HCO₃, pH 9.6. After an eighteen hour incubation at 4° C., the wells were washed once with ELISA C. The wells were blocked by incubation for 2 hours at 37° C. with 175 μl/well ELISA B. […] The unbound receptor was removed, and the test wells were incubated with increasing concentrations of serially diluted, unlabeled PDGF-BB (diluted in binding media. Following a two hour incubation at room temperature, the wells were washed three times with binding media. One hundred microliters of 5 ng/ml ¹²⁵I-labeled PDGF-BBTyr (Example 18.F.) was added to each well, and the plates were incubated for an additional two hours at room temperature. The wells were washed three times with binding media followed by a 5 minute incubation with 100 μl/well of 0.1 M citrate, pH 2.5. The samples were harvested and counted in a gamma counter.

For the molecule “PDGF-BBTyr (PDGF-BB mutant molecule having a tyrosine replacing the phenylalanine at position 23) (from UniProt P01127) (ligand)”, the half-maximal binding was 0.82 ng/mL in experiment [1] and 0.8 ng/mL in experiment [2].

B1: PDGF-BB (ligand)
chain: SLGSLTIAEPAMIAECKTRTEVFEISRRLIDRTNANFLVWPPCVEVQRCSGCCNNRNVQCRPTQVQLRPVQVRKIEIVRKKPIFKKATVTLEDHLACKCETVAAARPVT
In experiment [3], B1 gave an IC50 of 8 ng/mL.

The term IC50 denotes the concentration that inhibits the measured activity by half.
